{
  "source": "the supplement of paper PMC9112550",
  "about": "“Optimization of the antimicrobial peptide Bac7 by deep mutational scanning” (BMC Biology, 2022);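 note: peptides expressed intracellularly from a pBAD plasmid library in pooled LB shake-flask culture, induced with 0.3% L-arabinose, DNA abundance read by NGS, three biological replicates, DESeq2 with apeglm shrinkage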",
  "system": "Escherichia coli TOP10",
  "test": "shrunken log2 fold change of peptide-encoding DNA abundance (4.5 h post-induction vs induction); higher = less antimicrobial activity (less host growth inhibition)",
  "details": "time post-induction: 4.5 h; library: site-saturation at positions 5, 18, 19, 20",
  "data": [
    {"sequence": "RRIRGRPPRLPRPRPRPNKYPRP", "values": [
      {"measurement": "shrunken log2 fold change", "value": -0.0952}
    ]},
    {"sequence": "RRIRDRPPRLPRPRPRPYFNPRP", "values": [
      {"measurement": "shrunken log2 fold change", "value": -0.849}
    ]},
    {"sequence": "RRIRKRPPRLPRPRPRPSVPPRP", "values": [
      {"measurement": "shrunken log2 fold change", "value": 0.21}
    ]},
    {"sequence": "RRIRTRPPRLPRPRPRPSVPPRP", "values": [
      {"measurement": "shrunken log2 fold change", "value": -0.0459}
    ]},
    {"sequence": "RRIRTRPPRLPRPRPRPGQMPRP", "values": [
      {"measurement": "shrunken log2 fold change", "value": 0.0303}
    ]},
    {"sequence": "RRIRKRPPRLPRPRPRPWICPRP", "values": [
      {"measurement": "shrunken log2 fold change", "value": 0.044}
    ]},
    {"sequence": "RRIRERPPRLPRPRPRPLVAPRP", "values": [
      {"measurement": "shrunken log2 fold change", "value": 0.0966}
    ]},
    {"sequence": "RRIRPRPPRLPRPRPRPFNWPRP", "values": [
      {"measurement": "shrunken log2 fold change", "value": -0.118}
    ]},
    {"sequence": "RRIRSRPPRLPRPRPRPGVHPRP", "values": [
      {"measurement": "shrunken log2 fold change", "value": -0.035}
    ]},
    {"sequence": "RRIRCRPPRLPRPRPRPHRHPRP", "values": [
      {"measurement": "shrunken log2 fold change", "value": -0.275}
    ]},
    {"sequence": "RRIRARPPRLPRPRPRPNPIPRP", "values": [
      {"measurement": "shrunken log2 fold change", "value": -0.19}
    ]},
    {"sequence": "RRIRERPPRLPRPRPRPKCDPRP", "values": [
      {"measurement": "shrunken log2 fold change", "value": 0.175}
    ]},
    {"sequence": "RRIRVRPPRLPRPRPRPQKKPRP", "values": [
      {"measurement": "shrunken log2 fold change", "value": -0.117}
    ]},
    {"sequence": "RRIRNRPPRLPRPRPRPAAMPRP", "values": [
      {"measurement": "shrunken log2 fold change", "value": -0.223}
    ]},
    {"sequence": "RRIRFRPPRLPRPRPRPIFQPRP", "values": [
      {"measurement": "shrunken log2 fold change", "value": -0.46}
    ]},
    {"sequence": "RRIRTRPPRLPRPRPRPPFWPRP", "values": [
      {"measurement": "shrunken log2 fold change", "value": 0.379}
    ]},
    {"sequence": "RRIRTRPPRLPRPRPRPKRYPRP", "values": [
      {"measurement": "shrunken log2 fold change", "value": -0.154}
    ]},
    {"sequence": "RRIRWRPPRLPRPRPRPHYEPRP", "values": [
      {"measurement": "shrunken log2 fold change", "value": -0.209}
    ]},
    {"sequence": "RRIRARPPRLPRPRPRPVTVPRP", "values": [
      {"measurement": "shrunken log2 fold change", "value": 2.71}
    ]},
    {"sequence": "RRIRQRPPRLPRPRPRPIMHPRP", "values": [
      {"measurement": "shrunken log2 fold change", "value": -0.172}
    ]},
    {"sequence": "RRIRTRPPRLPRPRPRPIWPPRP", "values": [
      {"measurement": "shrunken log2 fold change", "value": 0.173}
    ]},
    {"sequence": "RRIRPRPPRLPRPRPRPVAVPRP", "values": [
      {"measurement": "shrunken log2 fold change", "value": 0.143}
    ]},
    {"sequence": "RRIRWRPPRLPRPRPRPSWEPRP", "values": [
      {"measurement": "shrunken log2 fold change", "value": -0.0924}
    ]},
    {"sequence": "RRIRMRPPRLPRPRPRPRADPRP", "values": [
      {"measurement": "shrunken log2 fold change", "value": 1.73}
    ]},
    {"sequence": "RRIRARPPRLPRPRPRPQLEPRP", "values": [
      {"measurement": "shrunken log2 fold change", "value": 0.63}
    ]},
    {"sequence": "RRIRMRPPRLPRPRPRPPRLPRP", "values": [
      {"measurement": "shrunken log2 fold change", "value": 1.06}
    ]},
    {"sequence": "RRIRSRPPRLPRPRPRPHQQPRP", "values": [
      {"measurement": "shrunken log2 fold change", "value": -0.0386}
    ]},
    {"sequence": "RRIRVRPPRLPRPRPRPYAYPRP", "values": [
      {"measurement": "shrunken log2 fold change", "value": 0.0587}
    ]},
    {"sequence": "RRIRYRPPRLPRPRPRPMGHPRP", "values": [
      {"measurement": "shrunken log2 fold change", "value": -1.16}
    ]},
    {"sequence": "RRIRGRPPRLPRPRPRPRVPPRP", "values": [
      {"measurement": "shrunken log2 fold change", "value": 0.356}
    ]},
    {"sequence": "RRIRMRPPRLPRPRPRPKKPPRP", "values": [
      {"measurement": "shrunken log2 fold change", "value": 0.102}
    ]},
    {"sequence": "RRIRKRPPRLPRPRPRPSHHPRP", "values": [
      {"measurement": "shrunken log2 fold change", "value": 0.02}
    ]},
    {"sequence": "RRIRHRPPRLPRPRPRPESTPRP", "values": [
      {"measurement": "shrunken log2 fold change", "value": 0.0536}
    ]},
    {"sequence": "RRIRQRPPRLPRPRPRPEQRPRP", "values": [
      {"measurement": "shrunken log2 fold change", "value": 0.0426}
    ]},
    {"sequence": "RRIRARPPRLPRPRPRPNAPPRP", "values": [
      {"measurement": "shrunken log2 fold change", "value": 0.467}
    ]},
    {"sequence": "RRIRDRPPRLPRPRPRPGMWPRP", "values": [
      {"measurement": "shrunken log2 fold change", "value": 0.634}
    ]},
    {"sequence": "RRIRWRPPRLPRPRPRPTQEPRP", "values": [
      {"measurement": "shrunken log2 fold change", "value": 0.0333}
    ]},
    {"sequence": "RRIRGRPPRLPRPRPRPCEDPRP", "values": [
      {"measurement": "shrunken log2 fold change", "value": 0.0133}
    ]},
    {"sequence": "RRIRHRPPRLPRPRPRPYCTPRP", "values": [
      {"measurement": "shrunken log2 fold change", "value": -0.18}
    ]},
    {"sequence": "RRIRYRPPRLPRPRPRPFMHPRP", "values": [
      {"measurement": "shrunken log2 fold change", "value": -0.661}
    ]},
    {"sequence": "RRIRFRPPRLPRPRPRPINDPRP", "values": [
      {"measurement": "shrunken log2 fold change", "value": -0.241}
    ]},
    {"sequence": "RRIRLRPPRLPRPRPRPFIAPRP", "values": [
      {"measurement": "shrunken log2 fold change", "value": -0.496}
    ]},
    {"sequence": "RRIRMRPPRLPRPRPRPDQRPRP", "values": [
      {"measurement": "shrunken log2 fold change", "value": -0.105}
    ]},
    {"sequence": "RRIRERPPRLPRPRPRPRFHPRP", "values": [
      {"measurement": "shrunken log2 fold change", "value": -0.447}
    ]},
    {"sequence": "RRIRARPPRLPRPRPRPARNPRP", "values": [
      {"measurement": "shrunken log2 fold change", "value": 0.364}
    ]},
    {"sequence": "RRIRIRPPRLPRPRPRPPDPPRP", "values": [
      {"measurement": "shrunken log2 fold change", "value": 0.243}
    ]},
    {"sequence": "RRIRVRPPRLPRPRPRPLKIPRP", "values": [
      {"measurement": "shrunken log2 fold change", "value": -0.0769}
    ]},
    {"sequence": "RRIRLRPPRLPRPRPRPYGNPRP", "values": [
      {"measurement": "shrunken log2 fold change", "value": 0.0303}
    ]},
    {"sequence": "RRIRGRPPRLPRPRPRPWSTPRP", "values": [
      {"measurement": "shrunken log2 fold change", "value": 0.243}
    ]},
    {"sequence": "RRIRKRPPRLPRPRPRPEYMPRP", "values": [
      {"measurement": "shrunken log2 fold change", "value": 0.264}
    ]},
    {"sequence": "RRIRLRPPRLPRPRPRPRHWPRP", "values": [
      {"measurement": "shrunken log2 fold change", "value": 0.679}
    ]},
    {"sequence": "RRIRPRPPRLPRPRPRPIWRPRP", "values": [
      {"measurement": "shrunken log2 fold change", "value": 0.583}
    ]},
    {"sequence": "RRIRVRPPRLPRPRPRPTIFPRP", "values": [
      {"measurement": "shrunken log2 fold change", "value": -0.469}
    ]},
    {"sequence": "RRIRARPPRLPRPRPRPTYLPRP", "values": [
      {"measurement": "shrunken log2 fold change", "value": -0.023}
    ]},
    {"sequence": "RRIRMRPPRLPRPRPRPILAPRP", "values": [
      {"measurement": "shrunken log2 fold change", "value": 0.261}
    ]},
    {"sequence": "RRIRRRPPRLPRPRPRPYPEPRP", "values": [
      {"measurement": "shrunken log2 fold change", "value": 0.00427}
    ]},
    {"sequence": "RRIRRRPPRLPRPRPRPQFCPRP", "values": [
      {"measurement": "shrunken log2 fold change", "value": -0.0309}
    ]},
    {"sequence": "RRIRWRPPRLPRPRPRPDDHPRP", "values": [
      {"measurement": "shrunken log2 fold change", "value": 0.0959}
    ]},
    {"sequence": "RRIRLRPPRLPRPRPRPFTRPRP", "values": [
      {"measurement": "shrunken log2 fold change", "value": -0.0482}
    ]},
    {"sequence": "RRIRDRPPRLPRPRPRPRKVPRP", "values": [
      {"measurement": "shrunken log2 fold change", "value": 0.187}
    ]}
  ]
}
